According to the supplement of paper PMC7125110:
± gives the standard error. This sample holds only a part of the variants without activity.

B1: glmS ribozyme (parent)
chain: AUAAAAGCGCCAGAACUACAGAAAUGUAGUUGACGAGGAGGAGGUUUAUCGAAUUUUCGGCGGAUGCCUCCAAA

Columns and labels:
Conditions in all cases: with glucosamine-6-phosphate
[1] = variants of: B1; experiment: self-cleavage kobs at 160 uM GlcN6P; higher = faster cleavage; RNA array
In short: (§1)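 E. coli RNA polymerase transcribed barcoded ribozyme variants in situ on sequenced MiSeq chips, which were tracked via a hybridised Cy3 probe at 37 °C. Tiles were imaged over ~14 h after glucosamine-6-phosphate (40 μM to 10 mM) in HEPES/KCl/Mg(OAc)2 buffer was flowed in. Normalised per-tile medians were fit to one- or two-exponential decays for kobs, and kcat and KM came from weighted Michaelis–Menten fits.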

[2] = variants of: B1; experiment: self-cleavage kobs at 640 uM GlcN6P; higher = faster cleavage; RNA array
In short: as §1

[3] = variants of: B1; experiment: self-cleavage kobs at 2500 uM GlcN6P; higher = faster cleavage; RNA array
In short: as §1

[4] = variants of: B1; experiment: self-cleavage kobs at 10000 uM GlcN6P; higher = faster cleavage; RNA array
In short: as §1

Row | Variant | self-cleavage kobs at 160 uM GlcN6P [1] | self-cleavage kobs at 640 uM GlcN6P [2] | self-cleavage kobs at 2500 uM GlcN6P [3] | self-cleavage kobs at 10000 uM GlcN6P [4]
1 | AUAAAAGCGGCAGAACUACAGAAAUGUAGUUUACGAGGAGGAGGUUUAUCGAAUUUUCGGCGGAUGCCGCCAAA | < 1e-05 s⁻¹ | – | – | –
2 | AUAAAAGCGCCAGAAAUACAGAAAUGUAGUUGACGAGGAGAAGGUUUAUCGAAUUGUCGGCGGAUGCCUCCAAA | < 1e-05 s⁻¹ | < 1e-05 s⁻¹ | – | –
3 | AUAAAAGCGCGAGAACUACAGAAAUGUAGUGGACGAGGAGGAGAUUUAUCGAAUUUUCGGCGGACGCCUCCAAA | < 1e-05 s⁻¹ | < 1e-05 s⁻¹ | < 1e-05 s⁻¹ | –
4 | AUAAAAGCGCCAGAACUACAGAAAUGUAGUUGACGAGGAGGAGGUUUAUCGAAUUUUCGGCGUCUGCCUCCAAA | < 1e-05 s⁻¹ | < 1e-05 s⁻¹ | < 1e-05 s⁻¹ | < 1e-05 s⁻¹
5 | AUAAAAGCGCCAGAACUACAGAAAUGUAGUUGACGAGGAGGAGGUUUAUCUGAUUUUUAGCGGAUGCCUCCAAA | < 1e-05 s⁻¹ | < 1e-05 s⁻¹ | < 1e-05 s⁻¹ | –
6 | AUAAAAGCACCAGAACUACAGAAAUGUAGUUGACGAGGAGGACCUUUAUCGAAUUUUCGGCUGAUGCCUCCAAA | < 1e-05 s⁻¹ | < 1e-05 s⁻¹ | < 1e-05 s⁻¹ | –
7 | AUAAAAACGCCAGAACUACAGAAAUGUAGUUGCCGAGGAGGCGGUUUCUCGAAUUUUCGGCGGAUGCCUCCAAA | < 1e-05 s⁻¹ | – | < 1e-05 s⁻¹ | –
8 | AUAAAAGCGCCAGAACUACAGAAAUGUAGUUAACGAGGAGGAGGUUUACCGAAUUUUCGGAGGAUGCCUCCAAA | < 1e-05 s⁻¹ | – | – | –
9 | AUAAAAGCGCCAGAACUACAGAAAUGUAGUUGACGAGGAGGUGGUUUAUCGCAUUUUCGGCGGAUGACUCCAAA | < 1e-05 s⁻¹ | – | – | –
10 | AUAAAAGCGACAGAACUACAGAAAUGUAGUUGACGAGGAGGAGGUUUAUCGAAGUUUCGGCGGAUGCCUCGAAA | 9.72e-05 ± 3.2e-05 s⁻¹ | 0.000112 ± 5.5e-05 s⁻¹ | – | –
11 | AUAAAAGCGCCAGAACUACAGAAAUGUAGUUGACGAGGAGGAGCUUUAUCUAAUUUUCGGCGGAUGCGUCCAAA | < 1e-05 s⁻¹ | – | – | –
12 | AUAAAAACGCCAGAACUACAGAAAUGUAGUUUAUGAGGAGGAGGUUUAUCGAAUUUUCGGCGGAUGCCUCCAAA | < 1e-05 s⁻¹ | – | – | –
13 | AUAAAUGCGCCAGAACUACAGAAAUGUAGUUGACGAGGAGGAUGUUUAUCGAAUUUACGGCGGAUGCCUCCAAA | < 1e-05 s⁻¹ | < 1e-05 s⁻¹ | < 1e-05 s⁻¹ | –
14 | AUAAAAGCGCCAGAACUACAGAAAUGUAGUUGACGAGGACGAGGUUUAUCGAAUUUUCGGCGGUUGCCUCCAAA | < 1e-05 s⁻¹ | < 1e-05 s⁻¹ | – | –
15 | AUAAAAGCGCCAGAACUACAGAAAUGUAGUUGAAGAGGCGGAGGUUUAACGAAUCUUCGGCGGAUGCCUCCAAA | < 1e-05 s⁻¹ | – | – | –
16 | AUAAAAUCGCCAGAACUACAGAAAUGUAGUUGACAACGAGGAGGUGAAUCGAAUUUUCGGCGGAUGCCUGCAAA | < 1e-05 s⁻¹ | < 1e-05 s⁻¹ | < 1e-05 s⁻¹ | –
17 | AUAAAAGCGCCAGAACUACAGAAAUGUAGUUGACGAGGACGAGGUUUUUCGAAUUUUCGGUGGAUGCCUCCAAA | < 1e-05 s⁻¹ | < 1e-05 s⁻¹ | – | –
18 | AUAAAACCGCCAGAACUACAGAAAUGUAUUUGGCGAGGAGGAGGUUUAUCGAAUUUUCGGCGGAUGCCUCCAAA | < 1e-05 s⁻¹ | < 1e-05 s⁻¹ | – | –
